Measurements: patent publication US20030009023A1 (US Dept. of Health and Human Services, published 2003)

B1: bovine Frzb (other)
chain: AACEPVRIPLCKSLPWNMTKMPNHLHHSTQANAILAIEQFEGLLGTHCSPDLLFFLCAMYAPICTIDFQHEPIKPCKSVCERARQGCEPILIKYRHSWPESLACEELPVYDRGVCISPEAIVTADGADFPMDSSNGNCRGASSERCKCKPVRATQKTYFRNNYNYVIRAKVKEIKTKCHDVTAVVEVKEILKASLVNIPRETVNLYTSSGCLCPPLNVNEEYLIMGYEDEERSRLLLVEGSIAEKWKDRLGKKVKRWDMKLRHLGLNTSDSSHSDSTQSQKPGRNSNSRQARN
notes: Full-length bovine Frzb expressed from pcDNA3 (pFrzb) in COS7 cells, or translated in vitro with microsomal membranes, or from injected mRNA; also called Bfrzb; BFrzb

Columns and labels:
Xwnt-8 (Xenopus) = Xwnt-8 (Xenopus) (UniProt P28026); assay: cell-based or functional assay
HA-tagged mouse Wnt-5B = target: T1, HA-tagged mouse Wnt-5B (mouse, UniProt P22726 18-359, limits assumed); assay: anti-HA immunoprecipitation of co-transfected COS7 lysates, immunoblot with N374-PEP
T1 construct: also called pLNCW5B-HA; not shown: HA tag
T1 sequence (looked up): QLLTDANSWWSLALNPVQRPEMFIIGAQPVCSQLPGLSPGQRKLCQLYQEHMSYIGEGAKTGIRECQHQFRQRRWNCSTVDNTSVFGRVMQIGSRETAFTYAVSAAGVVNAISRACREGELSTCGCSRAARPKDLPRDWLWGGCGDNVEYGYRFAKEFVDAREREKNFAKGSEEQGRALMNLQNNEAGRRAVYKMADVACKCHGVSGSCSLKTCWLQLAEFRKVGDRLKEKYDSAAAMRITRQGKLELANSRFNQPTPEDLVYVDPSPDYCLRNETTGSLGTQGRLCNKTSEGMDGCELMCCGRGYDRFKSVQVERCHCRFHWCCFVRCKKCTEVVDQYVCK

HA-tagged mouse Wnt-6 = target: T2, HA-tagged mouse Wnt-6 (mouse, UniProt P22727 24-364, limits assumed); assay: as above
T2 construct: also called pLNCW6-HA; not shown: HA tag
T2 sequence (looked up): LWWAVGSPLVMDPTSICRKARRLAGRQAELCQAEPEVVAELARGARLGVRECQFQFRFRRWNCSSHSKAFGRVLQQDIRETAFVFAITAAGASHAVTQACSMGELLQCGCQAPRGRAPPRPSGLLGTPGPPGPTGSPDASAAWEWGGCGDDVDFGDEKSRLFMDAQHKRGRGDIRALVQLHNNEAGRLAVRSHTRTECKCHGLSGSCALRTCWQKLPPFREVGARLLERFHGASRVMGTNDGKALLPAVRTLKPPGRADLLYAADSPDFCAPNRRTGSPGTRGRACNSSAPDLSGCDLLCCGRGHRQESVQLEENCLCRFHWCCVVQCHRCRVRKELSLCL

HA-tagged mouse Wnt-7A = target: T3, HA-tagged mouse Wnt-7A (mouse, UniProt P24383 32-349, limits assumed); assay: as above
T3 construct: also called pLNCW7A-HA; not shown: HA tag
T3 sequence (looked up): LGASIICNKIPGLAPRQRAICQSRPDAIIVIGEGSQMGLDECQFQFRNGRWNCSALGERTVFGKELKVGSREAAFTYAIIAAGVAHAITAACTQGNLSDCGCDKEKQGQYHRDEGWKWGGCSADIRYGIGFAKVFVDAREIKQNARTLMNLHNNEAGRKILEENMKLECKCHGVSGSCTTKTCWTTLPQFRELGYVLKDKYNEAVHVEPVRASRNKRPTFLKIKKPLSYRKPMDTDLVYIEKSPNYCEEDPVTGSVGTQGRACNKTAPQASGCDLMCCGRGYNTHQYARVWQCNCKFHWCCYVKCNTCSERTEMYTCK

HA-tagged mouse Wnt-7B = target: T4, HA-tagged mouse Wnt-7B (mouse, UniProt P28047 25-349, limits assumed); assay: as above
T4 construct: also called pLNCW7B-HA; not shown: HA tag
T4 sequence (looked up): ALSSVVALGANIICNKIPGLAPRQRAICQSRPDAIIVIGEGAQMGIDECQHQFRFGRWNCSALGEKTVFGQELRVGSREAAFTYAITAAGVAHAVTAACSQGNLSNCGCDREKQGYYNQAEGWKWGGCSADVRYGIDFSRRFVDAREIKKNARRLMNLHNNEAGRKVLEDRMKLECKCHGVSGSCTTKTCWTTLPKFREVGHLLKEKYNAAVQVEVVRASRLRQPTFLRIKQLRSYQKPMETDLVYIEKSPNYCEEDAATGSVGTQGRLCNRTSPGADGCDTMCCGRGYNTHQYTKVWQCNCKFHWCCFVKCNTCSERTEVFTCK

HA-tagged murine Wnt-1 [1] = target: T5, HA-tagged murine Wnt-1 (mouse, UniProt P04426 28-370); assay: as above
T5 construct: also called pLNCWnt1HA; pLNCW1-HA; not shown: hemagglutinin (HA) tag near the C-terminus
T5 sequence (looked up): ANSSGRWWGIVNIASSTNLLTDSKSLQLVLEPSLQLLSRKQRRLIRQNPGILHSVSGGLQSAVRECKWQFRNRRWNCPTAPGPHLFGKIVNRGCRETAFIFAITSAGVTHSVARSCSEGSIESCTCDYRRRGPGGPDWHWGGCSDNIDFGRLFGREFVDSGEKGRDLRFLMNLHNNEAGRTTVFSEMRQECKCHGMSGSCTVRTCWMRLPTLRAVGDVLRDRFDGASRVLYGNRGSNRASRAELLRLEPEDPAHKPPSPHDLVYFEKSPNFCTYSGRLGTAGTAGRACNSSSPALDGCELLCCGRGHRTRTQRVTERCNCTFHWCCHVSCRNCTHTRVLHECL

HA-tagged mouse Wnt-2 = target: T6, HA-tagged mouse Wnt-2 (mouse, UniProt P21552 26-360, limits assumed); assay: as above
T6 construct: also called pLNCW2-HA; not shown: HA tag
T6 sequence (looked up): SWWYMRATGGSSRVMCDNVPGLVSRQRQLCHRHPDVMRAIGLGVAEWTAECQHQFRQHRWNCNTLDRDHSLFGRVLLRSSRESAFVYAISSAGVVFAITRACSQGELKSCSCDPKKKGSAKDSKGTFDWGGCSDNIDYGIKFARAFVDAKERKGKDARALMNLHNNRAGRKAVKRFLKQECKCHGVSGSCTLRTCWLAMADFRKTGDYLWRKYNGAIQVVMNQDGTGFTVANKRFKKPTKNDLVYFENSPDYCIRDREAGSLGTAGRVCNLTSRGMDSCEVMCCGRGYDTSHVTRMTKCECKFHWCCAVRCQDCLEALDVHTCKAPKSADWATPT

HA-tagged mouse Wnt-3A = target: T7, HA-tagged mouse Wnt-3A (mouse, UniProt P27467 19-352, limits assumed); assay: as above
T7 construct: also called pLNCW3A-HA; not shown: HA tag

HA-tagged mouse Wnt-4 = target: T8, HA-tagged mouse Wnt-4 (mouse, UniProt P22724 23-351, limits assumed); assay: as above
T8 construct: also called pLNCW4-HA; not shown: HA tag
T8 sequence (looked up): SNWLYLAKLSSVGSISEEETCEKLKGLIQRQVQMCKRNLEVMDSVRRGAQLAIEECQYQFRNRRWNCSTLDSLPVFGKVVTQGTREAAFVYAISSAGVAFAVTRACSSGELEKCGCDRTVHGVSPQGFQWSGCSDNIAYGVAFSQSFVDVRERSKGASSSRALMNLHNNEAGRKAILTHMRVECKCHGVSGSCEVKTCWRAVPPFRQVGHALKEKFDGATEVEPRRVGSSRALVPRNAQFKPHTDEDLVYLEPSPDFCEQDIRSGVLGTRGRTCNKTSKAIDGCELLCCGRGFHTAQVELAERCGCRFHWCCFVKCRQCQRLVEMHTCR

HA-tagged murine Wnt-1 [2] = target: T5, HA-tagged murine Wnt-1; assay: co-immunoprecipitation from lysates of co-transfected COS7 cells
bovine Frzb = target: B1; assay: co-immunoprecipitation after in vitro cotranslation
Xwnt-8^myc = target: T9, Xwnt-8^myc (Xenopus, UniProt P28026 23-358, limits assumed); assay: as above
T9 construct: also called myc-tagged XWnt-8
T9 sequence (looked up): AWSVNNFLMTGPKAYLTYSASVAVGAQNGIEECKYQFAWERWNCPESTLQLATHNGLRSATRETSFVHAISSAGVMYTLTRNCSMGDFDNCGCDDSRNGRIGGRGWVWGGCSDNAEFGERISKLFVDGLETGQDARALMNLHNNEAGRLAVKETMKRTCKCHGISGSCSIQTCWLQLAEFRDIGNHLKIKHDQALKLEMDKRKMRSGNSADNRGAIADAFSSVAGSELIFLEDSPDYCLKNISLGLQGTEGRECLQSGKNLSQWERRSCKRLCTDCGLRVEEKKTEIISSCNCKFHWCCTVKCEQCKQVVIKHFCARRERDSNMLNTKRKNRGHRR

T7 sequence (P27467 19-352 limits assumed): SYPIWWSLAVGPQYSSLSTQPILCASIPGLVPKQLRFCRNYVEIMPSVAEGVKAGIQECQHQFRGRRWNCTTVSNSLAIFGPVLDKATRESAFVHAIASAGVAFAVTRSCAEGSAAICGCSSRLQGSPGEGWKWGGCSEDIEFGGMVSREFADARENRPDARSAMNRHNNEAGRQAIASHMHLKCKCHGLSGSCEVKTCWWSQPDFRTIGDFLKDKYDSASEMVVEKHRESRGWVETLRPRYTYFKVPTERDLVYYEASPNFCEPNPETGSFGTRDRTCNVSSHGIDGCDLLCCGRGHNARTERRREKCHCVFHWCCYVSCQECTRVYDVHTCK

Xenopus Frzb
head defects produced by CSKA-Xwnt-8 plasmid in dorsal blastomeres (64/80 embryos without Xfrzb) (embryos with head defects out of 81) (Xwnt-8 (Xenopus)): 0

B1
binding result (HA-tagged mouse Wnt-5B): binds
binding result (HA-tagged mouse Wnt-6): binds
binding result (HA-tagged mouse Wnt-7A): binds
binding result (HA-tagged mouse Wnt-7B): binds
binding result (HA-tagged murine Wnt-1 [1]): binds
binding result (HA-tagged mouse Wnt-2): binds
binding result (HA-tagged mouse Wnt-3A): binds
binding result (HA-tagged mouse Wnt-4): binds

B2: Frzb deletion construct delta CRD (other)
chain: AACEPVVCISPEAIVTADGADFPMDSSNGNCRGASSERCKCKPVRATQKTYFRNNYNYVIRAKVKEIKTKCHDVTAVVEVKEILKASLVNIPRETVNLYTSSGCLCPPLNVNEEYLIMGYEDEERSRLLLVEGSIAEKWKDRLGKKVKRWDMKLRHLGLNTSDSSHSDSTQSQKPGRNSNSRQARN
notes: Made by deleting amino acids 39 to 145 of Frzb; also called CRD deletion; removal of the entire frizzled domain
binding result (HA-tagged murine Wnt-1 [2]): no binding

B3: β-lactamase (enzyme)
chain: HPETLVKVKDAEDQLGARVGYIELDLNSGKILESFRPEERFPMMSTFKVLLCGAVLSRVDAGQEQLGRRIHYSQNDLVEYSPVTEKHLTDGMTVRELCSAAITMSDNTAANLLLTTIGGPKELTAFLHNMGDHVTRLDRWEPELNEAIPNDERDTTMPAAMATTLRKLLTGELLTLASRQQLIDWMEADKVAGPLLRSALPAGWFIADKSGAGERGSRGIIAALGPDGKPSRIVVIYTTGSQATMDERNRQIAEIGASLIKHW
notes: also called β-lactamase control
binding result (bovine Frzb): no binding
binding result (Xwnt-8^myc): no binding
